Non-standard residues stand in square brackets, D forms with d. Primed or numbered codes have the meaning given here. No end group written: not given here. Oic = O=C(O)[C@@H]1C[C@@H]2CCCC[C@@H]2N1; Phe(4-Cl) = N[C@@H](Cc1ccc(Cl)cc1)C(=O)O; d1Nal = N[C@H](Cc1cccc2ccccc12)C(=O)O; NMeR = CN[C@@H](CCCNC(=N)N)C(=O)O; hArg = N=C(N)NCCCC[C@H](N)C(=O)O; β3hR = N=C(N)NCCC[C@H](N)CC(=O)O; Cha = N[C@@H](CC1CCCCC1)C(=O)O; β3hL = CC(C)C[C@H](N)CC(=O)O; Nle = CCCC[C@H](N)C(=O)O; Orn = NCCC[C@H](N)C(=O)O; Pip′ = not defined here; Aib = CC(C)(N)C(=O)O; βAla = NCCC(=O)O; BLys = β-lysine; Sar = CNCC(=O)O
T1: human APJ receptor (human, UniProt P35414 1-380)
T1 sequence (looked up): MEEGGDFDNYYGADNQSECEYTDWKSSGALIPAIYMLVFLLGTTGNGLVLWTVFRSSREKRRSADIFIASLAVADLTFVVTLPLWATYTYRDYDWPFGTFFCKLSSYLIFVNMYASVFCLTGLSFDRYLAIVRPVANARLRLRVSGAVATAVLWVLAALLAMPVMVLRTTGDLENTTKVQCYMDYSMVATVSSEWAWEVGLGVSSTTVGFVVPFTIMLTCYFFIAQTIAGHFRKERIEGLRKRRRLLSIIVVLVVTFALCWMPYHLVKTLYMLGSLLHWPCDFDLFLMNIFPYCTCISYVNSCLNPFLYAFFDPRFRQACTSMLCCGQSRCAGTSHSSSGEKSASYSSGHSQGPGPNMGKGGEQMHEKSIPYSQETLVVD

T2: rat APJ receptor (rat, UniProt Q9JHG3 1-377)
T2 sequence (looked up): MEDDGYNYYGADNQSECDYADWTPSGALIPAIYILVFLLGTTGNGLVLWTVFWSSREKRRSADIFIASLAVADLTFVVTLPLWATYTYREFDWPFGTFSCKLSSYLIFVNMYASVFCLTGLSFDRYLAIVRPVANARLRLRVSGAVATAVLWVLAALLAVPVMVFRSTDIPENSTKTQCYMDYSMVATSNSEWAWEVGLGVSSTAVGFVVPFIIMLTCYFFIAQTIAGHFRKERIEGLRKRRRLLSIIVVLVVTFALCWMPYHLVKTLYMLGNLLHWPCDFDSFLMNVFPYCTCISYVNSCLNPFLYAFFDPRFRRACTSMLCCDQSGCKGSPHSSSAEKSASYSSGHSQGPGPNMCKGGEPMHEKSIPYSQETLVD


The binders below were run against T1, human APJ receptor (assay: cell-based or functional assay).

Binder | EC50 Human APJ Receptor
[Orn]F[hArg][hArg]Q[hArg]P[hArg][Cha]SHKG[Sar][Nle]P[Phe(4-Cl)] [apelin polypeptide SEQ ID NO: 683] | 379 pM
[Orn]F[hArg][hArg]Q[hArg][Pip′][hArg][Cha]SHKG[Oic][Nle]P[Phe(4-Cl)] [apelin polypeptide SEQ ID NO: 695] | 313 pM
[Orn]F[hArg][hArg]Q[β3hR]P[hArg][Cha]SHKG[Oic][Nle]P[Phe(4-Cl)] [apelin polypeptide SEQ ID NO: 693] | 229 pM
Ac-[hArg]Q[dR]P[NMeR][Cha]SHKG[Oic][Nle]P[Phe(4-Cl)]-OH [apelin polypeptide SEQ ID NO: 23] | 384 pM
[Orn]F[hArg][hArg]Q[hArg]P[hArg][Cha]SHK[Sar][Oic][Nle]P[Phe(4-Cl)] [apelin polypeptide SEQ ID NO: 680] | 116 pM
[Orn]F[hArg][hArg]Q[hArg]P[hArg][β3hL]SHKG[Oic][Nle]P[Phe(4-Cl)] [apelin polypeptide SEQ ID NO: 697] | 225 pM
[Orn]F[hArg][hArg]Q[hArg]P[hArg][Cha]SHKG[Oic][Nle][Aib][Phe(4-Cl)] [apelin polypeptide SEQ ID NO: 685] | 94.6 pM
[Orn]F[hArg][hArg]Q[hArg]P[hArg][Cha][βAla]HKG[Oic][Nle]P[Phe(4-Cl)] [apelin polypeptide SEQ ID NO: 699] | 440 pM
[Orn]F[hArg][hArg]Q[hArg]P[β3hR][Cha]SHKG[Oic][Nle]P[Phe(4-Cl)] [apelin polypeptide SEQ ID NO: 696] | 261 pM
[Orn]F[hArg][hArg]Q[hArg]P[hArg][Cha]SH[BLys]G[Oic][Nle]P[Phe(4-Cl)] [apelin polypeptide SEQ ID NO: 702] | 330 pM
[Orn]F[hArg][hArg]Q[hArg]P[hArg][Cha]SHKG[Aib][Nle]P[Phe(4-Cl)] [apelin polypeptide SEQ ID NO: 682] | 1530 pM

Further lines, results first:

EC50 Human APJ Receptor | Binder
1260 pM | [Orn]F[hArg][hArg]Q[hArg]P[hArg][Cha]SH[βAla]G[Oic][Nle]P[Phe(4-Cl)] [apelin polypeptide SEQ ID NO: 703]
654 pM | [Orn]F[hArg][hArg]Q[hArg]P[hArg][Cha]SHKG[Oic][Nle][d1Nal] [apelin polypeptide SEQ ID NO: 712]
229 pM | [Orn]F[hArg][hArg]Q[hArg]P[hArg][Cha]SHKG[Oic][Nle][Pip′][Phe(4-Cl)] [apelin polypeptide SEQ ID NO: 711]
963 pM | [Orn]F[hArg][hArg]Q[hArg]P[hArg][Cha]SHK[βAla][Oic][Nle]P[Phe(4-Cl)] [apelin polypeptide SEQ ID NO: 704]
3480 pM | [Orn]F[hArg][hArg]Q[hArg]P[hArg][Cha]SHKG[βAla][Nle]P[Phe(4-Cl)] [apelin polypeptide SEQ ID NO: 705]
294 pM | [Orn]F[hArg][hArg]Q[hArg]P[hArg][Cha]SHKG[Pip′][Nle]P[Phe(4-Cl)] [apelin polypeptide SEQ ID NO: 707]

These binders were tested against T2, rat APJ receptor (assay: cell-based or functional assay).

Binder | EC50 Rat APJ Receptor
[Orn]F[hArg][hArg]Q[hArg]P[hArg][Cha]SHKG[Sar][Nle]P[Phe(4-Cl)] [apelin polypeptide SEQ ID NO: 683] | 926 pM
[Orn]F[hArg][hArg]Q[hArg][Pip′][hArg][Cha]SHKG[Oic][Nle]P[Phe(4-Cl)] [apelin polypeptide SEQ ID NO: 695] | 384 pM
[Orn]F[hArg][hArg]Q[β3hR]P[hArg][Cha]SHKG[Oic][Nle]P[Phe(4-Cl)] [apelin polypeptide SEQ ID NO: 693] | 505 pM
Ac-[hArg]Q[dR]P[NMeR][Cha]SHKG[Oic][Nle]P[Phe(4-Cl)]-OH [apelin polypeptide SEQ ID NO: 23] | 32200 pM
[Orn]F[hArg][hArg]Q[hArg]P[hArg][Cha]SHK[Sar][Oic][Nle]P[Phe(4-Cl)] [apelin polypeptide SEQ ID NO: 680] | 401 pM
[Orn]F[hArg][hArg]Q[hArg]P[hArg][β3hL]SHKG[Oic][Nle]P[Phe(4-Cl)] [apelin polypeptide SEQ ID NO: 697] | 495 pM
[Orn]F[hArg][hArg]Q[hArg]P[hArg][Cha]SHKG[Oic][Nle][Aib][Phe(4-Cl)] [apelin polypeptide SEQ ID NO: 685] | 168 pM
[Orn]F[hArg][hArg]Q[hArg]P[hArg][Cha][βAla]HKG[Oic][Nle]P[Phe(4-Cl)] [apelin polypeptide SEQ ID NO: 699] | 603 pM
[Orn]F[hArg][hArg]Q[hArg]P[β3hR][Cha]SHKG[Oic][Nle]P[Phe(4-Cl)] [apelin polypeptide SEQ ID NO: 696] | 300 pM
[Orn]F[hArg][hArg]Q[hArg]P[hArg][Cha]SH[BLys]G[Oic][Nle]P[Phe(4-Cl)] [apelin polypeptide SEQ ID NO: 702] | 1490 pM
[Orn]F[hArg][hArg]Q[hArg]P[hArg][Cha]SHKG[Aib][Nle]P[Phe(4-Cl)] [apelin polypeptide SEQ ID NO: 682] | 7980 pM

Now from value to binder:

EC50 Rat APJ Receptor | Binder
2670 pM | [Orn]F[hArg][hArg]Q[hArg]P[hArg][Cha]SH[βAla]G[Oic][Nle]P[Phe(4-Cl)] [apelin polypeptide SEQ ID NO: 703]
821 pM | [Orn]F[hArg][hArg]Q[hArg]P[hArg][Cha]SHKG[Oic][Nle][d1Nal] [apelin polypeptide SEQ ID NO: 712]
351 pM | [Orn]F[hArg][hArg]Q[hArg]P[hArg][Cha]SHKG[Oic][Nle][Pip′][Phe(4-Cl)] [apelin polypeptide SEQ ID NO: 711]
2860 pM | [Orn]F[hArg][hArg]Q[hArg]P[hArg][Cha]SHK[βAla][Oic][Nle]P[Phe(4-Cl)] [apelin polypeptide SEQ ID NO: 704]
11100 pM | [Orn]F[hArg][hArg]Q[hArg]P[hArg][Cha]SHKG[βAla][Nle]P[Phe(4-Cl)] [apelin polypeptide SEQ ID NO: 705]
471 pM | [Orn]F[hArg][hArg]Q[hArg]P[hArg][Cha]SHKG[Pip′][Nle]P[Phe(4-Cl)] [apelin polypeptide SEQ ID NO: 707]

From US10941182 (Amgen, dated 2021)
